# Assay results: patent publication US8445275B2, “Induction of dendritic cell development with macrophage-colony stimulating factor (M-CSF)” (Bavarian Nordic A/S, priority 2007, dated 2013)
# What was measured:
# [1] = system: FL cultures (FL-DC generation, Flt3); test: Inhibitor effect on cell numbers in FL BM cultures (FL-DC generation); assay type: cell-based, mouse; conditions: range of concentrations
# Method: FIG. 4 and FIG. 8. The generation of M-DC is inhibited by a c-FMS inhibitor. Replicate M-CSF and FL cultures were conducted in parallel in the presence or absence of a range of A: cFMS Receptor Tyrosine Kinase Inhibitor or B: Flt3 Inhibitor concentrations. At the end of the culture period all cells were counted. The number of cells harvested from cultures without inhibitor was set at 100%. Cells from cultures containing inhibitor were expressed as a percentage of cells obtained in the absence of inhibitor. The data shown in each panel are from one experiment each, representative of 2 experiments carried out for each of the inhibitors.
# (§1) M-CSF and FL BM cultures—BM cells were flushed from femurs and tibiae of mice. Red cell lysis buffer (Sigma-Aldrich) was used to deplete red blood cells from the BM cell suspensions. BM cells were then either cultured directly or after depletion. To deplete, BM cells were incubated for 30 min with rat antibodies to CD11c and CD45R (B220) followed by 30 min incubation with goat anti-rat magnetic beads (Qiagen, Hilden, Germany). The depletion procedure routinely removed 65-80% of total BM cells. It should be noted that depletion with the beads only, in the absence of the rat antibodies, also depleted about 50% of the BM cells, presumably via FcR/Ig interactions. […]
# [2] = system: M-pDC; test: Activation and cytokine production of sorted M-pDC by TLR ligands; assay type: cell-based, mouse; conditions: TLR2 ligand 1 μg/ml, 18 hrs
# Method: Activation of DC subsets and analysis of cytokine production by ELISA—Unsorted M-CSF or FL BM cultures or sorted DCs (0.25−0.5×10^6 cells/ml) were stimulated for 18-24 hrs in complete media with or without an added stimulus. The stimuli used were as follows: 1 μg/ml Pam-3-Cys, 100 μg/ml poly(I:C), 1 μg/ml LPS, 1 μg/ml R837, 1 mM Loxoribine, 0.5 μM CpG2216, 0.5 μM CpG1668. Culture supernatants were assayed for the presence of IFN-α by two-site ELISA as previously described (21). Other cytokines (IL-12 p70, IL-6, TNF-α, MCP-1 and IFN-γ) were measured using the Cytometric Bead Array, Mouse Inflammation Kit (Becton Dickinson). Stimulated DCs were blocked as stated above and stained with antibodies directed to CD8a, CD40, CD69, CD80 and CD86.
# The survival of the M-pDC to these stimuli was extremely poor (<5%), data not shown.
# Similar to FL-pDCs and ex-vivo pDCs, sorted M-pDC were activated with ligands for TLR7 and 9, as indicated by elevated expression of CD8a, CD69, CD86 and CD40 (FIG. 3B and data not shown). M-pDC only produced detectable cytokines to TLR7 and 9 ligands (FIG. 3C and data not shown). In response to a type A CpG-ODN (CpG2216) M-pDCs produced high levels of IFN-α (FIG. 3C). […] The production of IL-10, IL-12p70, MCP-1 and IFN-γ by the M-pDC was also tested but none of these cytokines were detected.
# [3] = system: CMP, CLP, GMP from C57BL/6 BM; test: M-CSF cultures of purified progenitors (CMP, CLP, GMP) spiked into UBC-GFP BM cells; assay type: cell-based, mouse; conditions: M-CSF culture 6 days
# Method: CMP (Lin^−Sca-1^−ckit^+CD34^+FcR^int), CLP (Lin^−Sca-1^+c-kit^intIL-7R^+Thy-1^−) or granulocyte/macrophage progenitors (GMP, Lin^−Sca-1^−c-kit^+CD34^+FcR^hi) were isolated from C57BL/6 BM as previously described^21 and sorted to greater than 95% purity on a FACS-ARIA instrument. 2500 cells and serial 2-fold dilutions thereof were added to a 1 ml suspension of UBC-GFP BM cells in a 24-well plate. Final UBC-GFP BM cell concentration was 1.0×10^6 cells/ml. M-CSF or FL cultures were carried out in these wells as described above. After 6 days, samples were enumerated, analysed by FACS, and progeny arising from the C57BL/6 progenitors were gated as GFP^neg cells. To analyse M-CSFR (CD115) and Flt3 (CD135) expression on CLP (Lin^−Sca-1^+c-kit^intIL-7R^+Thy-1^−), lineage depleted cells were first stained with Sca-1-FITC and Thy-1-PE antibodies and the Sca-1^+Thy-1^− cells were sorted. These pre-enriched cells (>95% purity when reanalysed) were then stained with CD117-PE-CY7, IL-7R-APC and either CD115-PE or CD135-PE.
# The identification of DC subtypes that could be generated in the absence of FL both in vivo and in vitro immediately raises the question of the nature of their precursor cells. It has been considered whether this factor acts on an early lineage progenitor or, since M-CSF is traditionally considered a ‘myeloid’ growth factor, on a later precursor within the myeloid lineage to generate M-DC. CMP, GMP and CLP were purified from mouse BM. Serial dilutions of the purified cell populations were admixed with ‘feeder’ UBC-GFP BM cells and M-CSF cultures were carried out for 6 days.
# [4] = system: mouse bone marrow (BM) cells; test: IFN-α production of M-CSF BM cultures in response to CpG-2216 (ELISA); assay type: cell-based
# Method: as §1, with “interactions. Total BM cells or depleted BM cells were cultured at 1.5×10^6 cells/ml in RPMI-1640 media (Gibco) supplemented with 10% FCS, 50 μM beta-mercaptoethanol, 100 IU/ml penicillin/streptomycin (complete media) and either 20 ng/ml recmuM-CSF or rechu-MCSF or 35 ng/ml recmuFL for 6-8 days at 37° C. in a humidified atmosphere containing 5% CO2.” for “interactions.”
# Activation of DC subsets and analysis of cytokine production by ELISA—Unsorted M-CSF or FL BM cultures or sorted DCs (0.25−0.5×10^6 cells/ml) were stimulated for 18-24 hrs in complete media with or without an added stimulus. […] Other cytokines (IL-12 p70, IL-6, TNF-α, MCP-1 and IFN-γ) were measured using the Cytometric Bead Array, Mouse Inflammation Kit (Becton Dickinson). […]
# [5] = system: C57BL/6 or FLKO mice; test: In vivo M-CSF treatment, DC numbers in spleen and peritoneal lavage; set-up: species or system mouse
# Method: In vivo M-CSF treatment—Wild type and FLKO mice were treated ip with 10 μg of M-CSF in 0.01% BSA (100 μl volume), or with vehicle alone, for five consecutive days. At the end of five days mice were sacrificed. The peritoneum was flushed 3 times with Complete media and then organs were collected for DC purification.
# Ex vivo DC purification—DCs were purified from spleens of M-CSF or vehicle treated mice essentially as previously described (21), using FACS buffer, RPMI and 1.077A Nycodenz (Progen Biotechnik GmbH, Heidelberg, Germany) that was adjusted to mouse osmolarity (308 mOsm).
# Specifically cDC were reduced about 2-fold and pDC about 3-fold. This was substantially less of an effect than that seen in mice lacking FL but nevertheless, lack of M-CSF did result in reduced DC numbers, further substantiating the assumption that M-CSF is a DC poietin. To further validate the studies initiated by MacDonald et al (2005), M-CSF was administered to mice in order to analyze whether M-CSF could actually increase DC numbers in vivo. According to other references in the prior art, a range of exogenous M-CSF concentrations in the range of 10 to 200 μg/day has been administered. The source of M-CSF used has varied widely and consequently, as well as the specific activity. It is thus impossible to gauge an optimal or saturating level of M-CSF to administer. Moreover, it has been reported that M-CSF has an extremely short half-life of only 10 mins in the circulation^28. Due to the prohibitive cost of commercial M-CSF with a determined specific activity a ‘proof of principal’ trial experiment was conducted and 10 μg/day of M-CSF to C57BL/6 or FLKO mice for 5 days were administered. This amount was neither titrated nor was it attempted to extend the application period. […] Said observations indicate that M-CSF indeed was inducing an effect in vivo.
# [6] = system: BM cells depleted of B220+ and CD11c+ cells; test: pDC/cDC development in M-CSF BM cultures (CD11c/CD45RA staining); assay type: cell-based, mouse
# Method: M-CSF and FL BM cultures—BM cells were flushed from femurs and tibiae of mice. Red cell lysis buffer (Sigma-Aldrich) was used to deplete red blood cells from the BM cell suspensions. BM cells were then either cultured directly or after depletion. To deplete, BM cells were incubated for 30 min with rat antibodies to CD11c and CD45R (B220) followed by 30 min incubation with goat anti-rat magnetic beads (Qiagen, Hilden, Germany). The depletion procedure routinely removed 65-80% of total BM cells. It should be noted that depletion with the beads only, in the absence of the rat antibodies, also depleted about 50% of the BM cells, presumably via FcR/Ig interactions. Total BM cells or depleted BM cells were cultured at 1.5×10^6 cells/ml in RPMI-1640 media (Gibco) supplemented with 10% FCS, 50 μM beta-mercaptoethanol, 100 IU/ml penicillin/streptomycin (complete media) and either 20 ng/ml recmuM-CSF or rechu-MCSF or 35 ng/ml recmuFL for 6-8 days at 37° C. in a humidified atmosphere containing 5% CO2. The M-CSF cultures were fed with fresh M-CSF every 3 days, without media change.
# Surface staining of M-CSF or FL BM cultures—Harvested cells were washed in PBS containing 2% FCS and 2 mM EDTA (FACS buffer). FcR binding was then blocked by incubation with 1 mg/ml purified anti CD16/32 monoclonal antibody (clone 2.4G2) for 20 mins on ice. An equal volume of 2× concentrated specific antibody stain was then added to the cell suspension and incubated for a further 20 mins. Cells were washed in FACS buffer and resuspended in FACS buffer containing 1 μg/ml propidium iodide.
# Indeed, a population of 10-20% of cells within the cultures expressed high levels of CD45RA and medium levels of CD11c, together with the lack of CD3, CD19 or CD49b or NK1.1 expression, low side scatter and forward scatter this was commensurate with the phenotype of pDCs (FIG. 1B and data not shown).
# It was clear that M-CSF could drive pDC development yet the yield of pDCs was substantially less then that obtained with FL. […]
# [7] = reported in the literature; cited from earlier work
# [8] = 10 μg/day ip for 5 days, C57BL/6 and FLKO mice, vs vehicle
molecule,measurement,setting,value
Flt3 Inhibitor II,effect on generation of FL-DC,[1],highly inhibitory
palmitoyl-3-cysteine-serine-lysine-4 [Pam-3-Cys],surface activation of M-pDC,[2],very minor surface activation
"M-CSF: Recombinant murine or human Macrophage-Colony Stimulating Factor obtained from Tebu-Bio / R&D Systems (protein, UniProt P09603 33-554, looked up) Macrophage colony-stimulating …: EEVSEYCSHMIGSGHLQSLQRLIDSQMETSCQITFEFVDQEQLKDPVCYLKKAFLLVQDIMEDTMRFRDNTPNAIAIVQLQELSLRLKSCFTKDYEEHDKACVRTFYETPLQLLEKVKNVFNETKNLLDKDWNIFSKNCNNSFAECSSQDVVTKPDCNCLYPKAIPSSDPASVSPHQPLAPSMAPVAGLTWEDSEGTEGSSLLPGEQPLHTVDPGSAKQRPPRSTCQSFEPPETPVVKDSTIGGSPQPRPSVGAFNPGMEDILDSAMGTNWVPEEASGEASEIPVPQGTELSPSRPGGGSMQTEPARPSNFLSASSPLPASAKGQQPADVTGTALPRVGPVRPTGQDWNHTPQKTDHPSALLRDPPEPGSPRISSLRPQGLSNPSTLSAQPQLSRSHSSGSVLPLGELEGRRSTRDRRSPAEPEGGPASEGAARPLPRFNSVPLTDTGHERQSEGSFSPQLQESVFHLLVPSVILVLLAVGGLLFYRWRRRSHQEPQRADSPLEQPEGSPLTQDDRQVELPV",output of M-cDC per input progenitor cell,[3]; CLP,about 5
same,output of M-pDC per input progenitor cell,[3]; CLP,at least 10
same,output of M-cDC per input progenitor cell,[3]; CMP,8-10
same,M-DC production from progenitors,[3]; GMP,not capable of M-DC production
same,CpG-induced IFN-α producing capacity,"[4]; DC-depleted BM cells cultured with M-CSF for 6 days, non-adherent cells",potent IFN-α producing capacity was detected again
same,IFN-α production in response to CpG-2216,"[4]; total BM cells cultured with M-CSF, 0-7 days, adherent and non-adherent cells",high levels
same,increase of cells that resembled DC in the peritoneal lavage,"[5]; 10 μg/day for 5 days, a C57BL/6 mouse, data not shown",greater than 6 fold
same,F4/80hi cells in peritoneal lavages,"[5]; 10 μg/day for 5 days, data not shown",huge increase
same,total splenocytes,[5]; 10 μg/day ip for 5 days,did not induce an increase
same,increase in cDC numbers in the spleen,[5]; [8],about 2 fold
same,increase in pDC numbers in the spleen,[5]; [8],about 2 fold
same,pDC development in BM cultures from FLKO mice,"[6]; FLKO BM depleted of DC, exogenous M-CSF only",pDCs developed even in the absence of FL
same,"population of cells with pDC phenotype (CD45RA high, CD11c medium) within the cultures","[6]; non-adherent M-CSF-generated cells, day 6",10-20%
same,efficiency of pDC yield compared with FL,"[6]; side by side after six days of culture, less efficient than FL",approximately 10 fold
same,half-life in the circulation,[7],10 min
